From paper PMC10786891, “Massively parallel profiling of RNA-targeting CRISPR-Cas13d”
Changes are numbered by the printed parent chain.

T1: EsCas13d, nuclease-dead (Eubacterium siraeum, UniProt B0MS50, R295A;H300A;R849A;H854A)
T1 sequence: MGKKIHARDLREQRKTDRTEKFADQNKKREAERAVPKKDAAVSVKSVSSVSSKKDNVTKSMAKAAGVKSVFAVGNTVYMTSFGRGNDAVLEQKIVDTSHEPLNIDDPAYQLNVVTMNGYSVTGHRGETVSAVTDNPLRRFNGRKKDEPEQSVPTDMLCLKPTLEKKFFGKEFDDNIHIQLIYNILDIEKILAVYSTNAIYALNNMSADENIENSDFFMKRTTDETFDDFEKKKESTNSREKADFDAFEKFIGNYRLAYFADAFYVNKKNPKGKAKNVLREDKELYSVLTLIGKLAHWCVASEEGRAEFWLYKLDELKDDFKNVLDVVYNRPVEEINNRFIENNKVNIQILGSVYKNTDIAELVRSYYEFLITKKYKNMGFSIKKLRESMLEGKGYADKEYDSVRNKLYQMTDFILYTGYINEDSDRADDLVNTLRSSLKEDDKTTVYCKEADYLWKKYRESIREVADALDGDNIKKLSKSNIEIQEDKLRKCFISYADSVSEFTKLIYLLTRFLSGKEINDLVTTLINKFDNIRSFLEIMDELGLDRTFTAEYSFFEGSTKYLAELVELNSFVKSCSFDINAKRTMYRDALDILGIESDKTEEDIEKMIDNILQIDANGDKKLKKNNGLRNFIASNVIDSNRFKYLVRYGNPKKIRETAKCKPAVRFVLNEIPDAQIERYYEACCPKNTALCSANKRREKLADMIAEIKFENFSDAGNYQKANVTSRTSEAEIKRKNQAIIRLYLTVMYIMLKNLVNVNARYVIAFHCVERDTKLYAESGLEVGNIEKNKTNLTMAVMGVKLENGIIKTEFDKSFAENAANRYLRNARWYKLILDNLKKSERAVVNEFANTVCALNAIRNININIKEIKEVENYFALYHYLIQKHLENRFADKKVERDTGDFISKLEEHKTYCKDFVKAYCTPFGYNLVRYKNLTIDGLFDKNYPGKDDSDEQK

B1: target 1 MT 5'PFS ACA 3'PFS ACU (mixed)
RNA 1: CACCCGUGCAAAAAUGCAGGGGUCUAAAACUGAGCGGAUAACCUCUCUAUGG
RNA 2: GGGAAUGGAUCCACAUCUACGAAUUCACACCAUAGAGAGGUUAUCCGCUCAACUAGAUCGGAAGAGCACACGU
B2: target 1 MT 5'PFS UAA 3'PFS CUC (mixed)
RNA 1: B1 RNA 1
RNA 2: B1 RNA 2 with A27U, C28A, A52C, C53U, U54C
B3: target 1 MT 5'PFS GGC 3'PFS UCC (mixed)
RNA 1: B1 RNA 1
RNA 2: B1 RNA 2 with A27G, C28G, A29C, A52U, U54C
B4: target 1 MT 5'PFS GGG 3'PFS GAG (mixed)
RNA 1: B1 RNA 1
RNA 2: B1 RNA 2 with A27G, C28G, A29G, A52G, C53A, U54G
B5: target 1 MT 5'PFS CUU 3'PFS UAU (mixed)
RNA 1: B1 RNA 1
RNA 2: B1 RNA 2 with A27C, C28U, A29U, A52U, C53A
B6: target 1 MT 5'PFS UCA 3'PFS CUC (mixed)
RNA 1: B1 RNA 1
RNA 2: B1 RNA 2 with A27U, A52C, C53U, U54C
B7: target 1 MT 5'PFS GUU 3'PFS AUA (mixed)
RNA 1: B1 RNA 1
RNA 2: B1 RNA 2 with A27G, C28U, A29U, C53U, U54A
B8: target 1 MT 5'PFS UAG 3'PFS UAC (mixed)
RNA 1: B1 RNA 1
RNA 2: B1 RNA 2 with A27U, C28A, A29G, A52U, C53A, U54C
B9: target 1 MT 5'PFS UGA 3'PFS CCU (mixed)
RNA 1: B1 RNA 1
RNA 2: B1 RNA 2 with A27U, C28G, A52C
B10: target 1 MT 5'PFS UAG 3'PFS UAU (mixed)
RNA 1: B1 RNA 1
RNA 2: B1 RNA 2 with A27U, C28A, A29G, A52U, C53A
B11: target 1 MT 5'PFS GUU 3'PFS UUA (mixed)
RNA 1: B1 RNA 1
RNA 2: B1 RNA 2 with A27G, C28U, A29U, A52U, C53U, U54A
B12: target 1 MT 5'PFS CUU 3'PFS UAA (mixed)
RNA 1: B1 RNA 1
RNA 2: B1 RNA 2 with A27C, C28U, A29U, A52U, C53A, U54A
B13: target 1 MT 5'PFS GGC 3'PFS UCU (mixed)
RNA 1: B1 RNA 1
RNA 2: B1 RNA 2 with A27G, C28G, A29C, A52U
B14: target 1 MT 5'PFS CUG 3'PFS CUC (mixed)
RNA 1: B1 RNA 1
RNA 2: B1 RNA 2 with A27C, C28U, A29G, A52C, C53U, U54C
B15: target 1 MT 5'PFS ACA 3'PFS ACA (mixed)
RNA 1: B1 RNA 1
RNA 2: B1 RNA 2 with U54A
B16: target 1 MT 5'PFS ACG 3'PFS UUA (mixed)
RNA 1: B1 RNA 1
RNA 2: B1 RNA 2 with A29G, A52U, C53U, U54A
B17: target 1 MT 5'PFS UAA 3'PFS CUG (mixed)
RNA 1: B1 RNA 1
RNA 2: B1 RNA 2 with A27U, C28A, A52C, C53U, U54G
B18: target 1 MT 5'PFS UCA 3'PFS CUA (mixed)
RNA 1: B1 RNA 1
RNA 2: B1 RNA 2 with A27U, A52C, C53U, U54A
B19: target 1 MT 5'PFS CUG 3'PFS CUA (mixed)
RNA 1: B1 RNA 1
RNA 2: B1 RNA 2 with A27C, C28U, A29G, A52C, C53U, U54A
B20: target 1 MT 5'PFS UAA 3'PFS CUU (mixed)
RNA 1: B1 RNA 1
RNA 2: B1 RNA 2 with A27U, C28A, A52C, C53U
B21: target 1 MT 5'PFS ACG 3'PFS UUG (mixed)
RNA 1: B1 RNA 1
RNA 2: B1 RNA 2 with A29G, A52U, C53U, U54G
B22: target 1 MT 5'PFS GUU 3'PFS UUG (mixed)
RNA 1: B1 RNA 1
RNA 2: B1 RNA 2 with A27G, C28U, A29U, A52U, C53U, U54G
B23: target 1 MT 5'PFS ACG 3'PFS UUC (mixed)
RNA 1: B1 RNA 1
RNA 2: B1 RNA 2 with A29G, A52U, C53U, U54C
B24: target 1 MT 5'PFS GUU 3'PFS AUG (mixed)
RNA 1: B1 RNA 1
RNA 2: B1 RNA 2 with A27G, C28U, A29U, C53U, U54G
B25: target 1 MT 5'PFS CCU 3'PFS CUU (mixed)
RNA 1: B1 RNA 1
RNA 2: B1 RNA 2 with A27C, A29U, A52C, C53U
B26: target 1 MT 5'PFS GUU 3'PFS AUC (mixed)
RNA 1: B1 RNA 1
RNA 2: B1 RNA 2 with A27G, C28U, A29U, C53U, U54C
B27: target 1 insA 3' of 17,insU 3' of 5 (mixed)
RNA 1: B1 RNA 1
RNA 2: GGGAAUGGAUCCACAUCUACGAAUUCGUACCAUAGAAGAGGUUAUCCGUCUCACCGAGAUCGGAAGAGCACACGU
B28: target 1 MT 5'PFS UGA 3'PFS CCG (mixed)
RNA 1: B1 RNA 1
RNA 2: B1 RNA 2 with A27U, C28G, A52C, U54G
B29: target 1 MT 5'PFS UUG 3'PFS CGA (mixed)
RNA 1: B1 RNA 1
RNA 2: B1 RNA 2 with A27U, C28U, A29G, A52C, C53G, U54A
B30: target 1 MT 5'PFS GUU 3'PFS UUC (mixed)
RNA 1: B1 RNA 1
RNA 2: B1 RNA 2 with A27G, C28U, A29U, A52U, C53U, U54C
B31: target 1 MT 5'PFS GGC 3'PFS UCA (mixed)
RNA 1: B1 RNA 1
RNA 2: B1 RNA 2 with A27G, C28G, A29C, A52U, U54A
B32: target 1 insU 3' of 22,insG 3' of 16 (mixed)
RNA 1: B1 RNA 1
RNA 2: GGGAAUGGAUCCACAUCUACGAAUUCGUACUCAUAGAGGAGGUUAUCCGCUCACCGAGAUCGGAAGAGCACACGU
B33: target 1 MT 5'PFS ACA 3'PFS ACC (mixed)
RNA 1: B1 RNA 1
RNA 2: B1 RNA 2 with U54C
B34: target 1 insC 3' of 14,insC 3' of 9 (mixed)
RNA 1: B1 RNA 1
RNA 2: B27 RNA 2 with A37G, G38A, A39C, U45C, C46U, G48C, U49G
B35: target 1 MT 5'PFS UAC 3'PFS ACU (mixed)
RNA 1: B1 RNA 1
RNA 2: B1 RNA 2 with A27U, C28A, A29C
B36: target 1 MT 5'PFS GGC 3'PFS UCG (mixed)
RNA 1: B1 RNA 1
RNA 2: B1 RNA 2 with A27G, C28G, A29C, A52U, U54G
B37: target 1 MT 5'PFS CCU 3'PFS CUG (mixed)
RNA 1: B1 RNA 1
RNA 2: B1 RNA 2 with A27C, A29U, A52C, C53U, U54G
B38: target 1 MT 5'PFS UAG 3'PFS UAG (mixed)
RNA 1: B1 RNA 1
RNA 2: B1 RNA 2 with A27U, C28A, A29G, A52U, C53A, U54G
B39: target 1 MT 5'PFS UUG 3'PFS CGG (mixed)
RNA 1: B1 RNA 1
RNA 2: B1 RNA 2 with A27U, C28U, A29G, A52C, C53G, U54G

biological target: T1, EsCas13d, nuclease-dead; assay: crRNA (strand 1, pre-loaded); Mg2+; 40 mM Tris-HCl pH 7.5, 150 mM NaCl, 6 mM MgCl2, 1 mM DTT, 0.1% Tween-20, 0.2 mg/ml BSA; 25 C; 10 min per concentration, then washed; settings: tags: His6-TwinStrep-SUMO cleaved; N-terminal SNAP kept (SNAP-Surface 488); label: 3' end held by stalled T7 RNA polymerase

| Binder | Kd |
| --- | --- |
| B1 | 9.3 ± 2.9 nM |
| B2 | 74 ± 28 nM |
| B3 | 17.8 ± 2.5 nM |
| B4 | 20.5 ± 5.5 nM |
| B5 | 56 ± 24 nM |
| B6 | 12.9 ± 3.1 nM |
| B7 | 22 ± 5.5 nM |
| B8 | 16.8 ± 2.05 nM |
| B9 | 36 ± 15 nM |
| B10 | 45 ± 9 nM |
| B11 | 13.1 ± 2.5 nM |
| B12 | 35 ± 11.5 nM |
| B13 | 10 ± 1.2 nM |
| B14 | 4.15 ± 1.5 nM |
| B15 | ~31 nM |
| B16 | 6.9 ± 1.3 nM |
| B17 | 25.8 ± 5.25 nM |
| B18 | 9.45 ± 2.55 nM |
| B19 | 5.8 ± 1.9 nM |
| B20 | 48 ± 19 nM |

| Binder | Kd |
| --- | --- |
| B21 | 7.45 ± 1 nM |
| B22 | 11.1 ± 1.05 nM |
| B23 | 19.5 ± 8 nM |
| B24 | 56 ± 9 nM |
| B25 | 6.65 ± 1.95 nM |
| B26 | 19.3 ± 3.55 nM |
| B27 | 25.8 ± 2.8 nM |
| B28 | ~42.5 nM |
| B29 | 47.5 ± 23.5 nM |
| B30 | 10.6 ± 1.45 nM |
| B31 | 17.1 ± 3.7 nM |
| B32 | 48 ± 16 nM |
| B33 | ~47.5 nM |
| B34 | 42 ± 11 nM |
| B35 | 11.2 ± 3.5 nM |
| B36 | 11.1 ± 1.15 nM |
| B37 | 21 ± 7 nM |
| B38 | 73.5 ± 28 nM |
| B39 | ~97 nM |
